The results in this text go back to article PMC10143249, “The Non-Canonical Iron-Responsive Element of IRE-tvcp12 Hairpin Structure at the 3′-UTR of Trichomonas vaginalis TvCP12 mRNA That Binds TvHSP70 and TvACTN-3 Can Regulate mRNA Stability and Amount of P”.

Data set [1] deals with T1, TvACTN-3r (alpha-actinin 3) (Trichomonas vaginalis, UniProt X5FVA1 1-1129).
T1 sequence: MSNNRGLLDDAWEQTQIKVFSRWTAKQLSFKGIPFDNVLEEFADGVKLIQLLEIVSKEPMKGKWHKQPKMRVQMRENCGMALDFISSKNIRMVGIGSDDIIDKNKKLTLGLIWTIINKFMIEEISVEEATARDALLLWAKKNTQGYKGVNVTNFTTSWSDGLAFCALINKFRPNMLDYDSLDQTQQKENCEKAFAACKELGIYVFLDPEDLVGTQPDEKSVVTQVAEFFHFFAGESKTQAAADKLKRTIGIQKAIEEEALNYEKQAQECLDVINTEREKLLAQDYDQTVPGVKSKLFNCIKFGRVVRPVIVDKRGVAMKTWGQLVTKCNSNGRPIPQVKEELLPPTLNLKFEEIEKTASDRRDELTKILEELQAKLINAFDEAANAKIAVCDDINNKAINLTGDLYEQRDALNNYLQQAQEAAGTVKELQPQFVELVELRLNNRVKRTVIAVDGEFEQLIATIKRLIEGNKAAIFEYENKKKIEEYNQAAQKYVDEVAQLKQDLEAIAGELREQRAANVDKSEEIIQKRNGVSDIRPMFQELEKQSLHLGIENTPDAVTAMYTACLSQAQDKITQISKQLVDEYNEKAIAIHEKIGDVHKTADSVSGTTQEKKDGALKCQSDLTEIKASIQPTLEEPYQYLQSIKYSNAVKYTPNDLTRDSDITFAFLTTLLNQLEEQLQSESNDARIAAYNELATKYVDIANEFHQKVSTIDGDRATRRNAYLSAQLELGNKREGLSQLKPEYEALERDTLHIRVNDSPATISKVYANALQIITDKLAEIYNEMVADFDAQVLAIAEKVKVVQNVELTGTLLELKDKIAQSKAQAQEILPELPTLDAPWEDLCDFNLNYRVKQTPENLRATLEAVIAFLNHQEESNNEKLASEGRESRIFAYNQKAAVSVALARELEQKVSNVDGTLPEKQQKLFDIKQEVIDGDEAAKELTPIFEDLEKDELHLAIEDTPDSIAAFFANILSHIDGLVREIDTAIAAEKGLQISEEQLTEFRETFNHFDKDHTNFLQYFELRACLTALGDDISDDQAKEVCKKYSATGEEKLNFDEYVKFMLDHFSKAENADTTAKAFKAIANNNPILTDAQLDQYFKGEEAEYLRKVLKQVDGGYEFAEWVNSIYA
In words: Northwestern blot; REMSA: 20 uL, 0.2 ng 32P-RNA, 1 ug hIRP-1r or 50 ug T. vaginalis extract, 5 ug heparin, 10 min at 25 C, 6% native gel; buffer, salt and pH not given; Northwestern conditions not given. As to conditions: protein: recombinant; label: 32P (alpha-32P UTP); hairpin.

Data set [2] deals with T2, hIRP-1r (iron regulatory protein 1) (human, UniProt P21399 1-889).
T2 sequence: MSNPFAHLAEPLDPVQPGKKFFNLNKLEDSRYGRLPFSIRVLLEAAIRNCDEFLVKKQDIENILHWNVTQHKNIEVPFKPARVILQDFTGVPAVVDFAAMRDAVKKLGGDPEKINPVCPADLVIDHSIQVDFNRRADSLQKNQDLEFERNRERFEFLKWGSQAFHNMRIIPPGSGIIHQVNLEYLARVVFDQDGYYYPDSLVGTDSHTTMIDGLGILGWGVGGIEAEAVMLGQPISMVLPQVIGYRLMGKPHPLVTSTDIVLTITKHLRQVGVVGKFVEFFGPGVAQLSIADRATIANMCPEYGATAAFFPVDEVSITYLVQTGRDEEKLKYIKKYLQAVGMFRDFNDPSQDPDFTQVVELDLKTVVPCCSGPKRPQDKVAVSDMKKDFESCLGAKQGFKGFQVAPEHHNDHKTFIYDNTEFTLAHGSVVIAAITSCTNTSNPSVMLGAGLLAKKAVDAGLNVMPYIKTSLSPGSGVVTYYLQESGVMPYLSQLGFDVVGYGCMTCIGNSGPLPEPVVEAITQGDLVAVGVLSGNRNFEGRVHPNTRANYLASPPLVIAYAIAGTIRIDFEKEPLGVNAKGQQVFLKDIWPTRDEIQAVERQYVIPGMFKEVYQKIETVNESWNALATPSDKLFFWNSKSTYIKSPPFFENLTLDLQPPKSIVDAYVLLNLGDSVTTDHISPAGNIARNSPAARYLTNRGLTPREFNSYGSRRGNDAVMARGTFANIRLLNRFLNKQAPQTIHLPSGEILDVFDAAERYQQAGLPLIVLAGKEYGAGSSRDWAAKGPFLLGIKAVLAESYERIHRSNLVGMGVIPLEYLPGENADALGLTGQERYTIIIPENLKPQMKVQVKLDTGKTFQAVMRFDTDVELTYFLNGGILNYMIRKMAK
Briefly: EMSA; 5 ug heparin; REMSA: 20 uL, 0.2 ng 32P-RNA, 1 ug hIRP-1r or 50 ug T. vaginalis extract, 5 ug heparin, 10 min at 25 C, 6% native gel; buffer, salt and pH not given; Northwestern conditions not given. As to conditions: protein: recombinant; (pGEX plasmid); label: 32P (alpha-32P UTP); hairpin.

B1: IRE-tvcp12 (wild type) (structured_RNA)
RNA: GGGACGUAUUUAAUUGAUUGCG
On to B1, for which the binding result in data set [1] and in data set [2] was “binds” throughout.
